From PMC4354923, “FTO is necessary for the induction of leptin resistance by high-fat feeding” (Molecular Metabolism, 2015)

Molecular target: Myc-tagged full length FTO (UniProt Q9C0B1 1-505)
Assay: cell-based or functional assay

Sequence of Myc-tagged full length FTO (Q9C0B1 whole entry): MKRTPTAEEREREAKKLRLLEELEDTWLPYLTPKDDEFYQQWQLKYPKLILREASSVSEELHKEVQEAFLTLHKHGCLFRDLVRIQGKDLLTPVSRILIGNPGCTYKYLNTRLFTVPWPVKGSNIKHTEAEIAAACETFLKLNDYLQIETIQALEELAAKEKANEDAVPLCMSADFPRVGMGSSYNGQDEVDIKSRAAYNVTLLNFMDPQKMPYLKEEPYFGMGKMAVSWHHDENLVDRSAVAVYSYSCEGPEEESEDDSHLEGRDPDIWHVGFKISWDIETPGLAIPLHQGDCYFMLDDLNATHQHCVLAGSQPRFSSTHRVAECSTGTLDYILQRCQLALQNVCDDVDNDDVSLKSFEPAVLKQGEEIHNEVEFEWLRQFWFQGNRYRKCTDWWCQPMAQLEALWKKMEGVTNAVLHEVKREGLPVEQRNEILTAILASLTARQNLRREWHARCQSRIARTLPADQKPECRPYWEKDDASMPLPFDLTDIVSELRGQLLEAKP

B1: Thyroid receptor interacting protein 4 (TRIP4), in HEK293 cell extract (natural protein, human (endogenous in HEK293), UniProt Q15650 1-581, looked up)
chain: MAVAGAVSGEPLVHWCTQQLRKTFGLDVSEEIIQYVLSIESAEEIREYVTDLLQGNEGKKGQFIEELITKWQKNDQELISDPLQQCFKKDEILDGQKSGDHLKRGRKKGRNRQEVPAFTEPDTTAEVKTPFDLAKAQENSNSVKKKTKFVNLYTREGQDRLAVLLPGRHPCDCLGQKHKLINNCLICGRIVCEQEGSGPCLFCGTLVCTHEEQDILQRDSNKSQKLLKKLMSGVENSGKVDISTKDLLPHQELRIKSGLEKAIKHKDKLLEFDRTSIRRTQVIDDESDYFASDSNQWLSKLERETLQKREEELRELRHASRLSKKVTIDFAGRKILEEENSLAEYHSRLDETIQAIANGTLNQPLTKLDRSSEEPLGVLVNPNMYQSPPQWVDHTGAASQKKAFRSSGFGLEFNSFQHQLRIQDQEFQEGFDGGWCLSVHQPWASLLVRGIKRVEGRSWYTPHRGRLWIAATAKKPSPQEVSELQATYRLLRGKDVEFPNDYPSGCLLGCVDLIDCLSQKQFKEQFPDISQESDSPFVFICKNPQEMVVKFPIKGNPKIWKLDSKIHQGAKKGLMKQNKAV
For B1, the “NFκB-responsive firefly luciferase reporter (normalised to renilla) in Fto null MEFs co-transfected with a TRIP4 expression construct and Myc-tagged full length FTO” value was no more than 5 fold.
